The supplement of paper PMC9112550, “Optimization of the antimicrobial peptide Bac7 by deep mutational scanning” (BMC Biology, 2022)

These sequences were tested on Escherichia coli TOP10 (assay: shrunken log2 fold change of peptide-encoding DNA abundance (4.5 h post-induction vs induction); higher = less antimicrobial activity (less host growth inhibition)). Settings: time post-induction: 4.5 h; library: site-saturation at positions 5, 18, 19, 20.
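Note: peptides expressed intracellularly from a pBAD plasmid library in pooled LB shake-flask culture, induced with 0.3% L-arabinose, DNA abundance read by NGS, three biological replicates, DESeq2 with apeglm shrinkage.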

| Sequence | shrunken log2 fold change |
| --- | --- |
| RRIRARPPRLPRPRPRPSMDPRP | 1.4 |
| RRIRFRPPRLPRPRPRPPKPPRP | 0.47 |
| RRIRCRPPRLPRPRPRPQQPPRP | 0.345 |
| RRIRIRPPRLPRPRPRPHPSPRP | -0.488 |
| RRIRHRPPRLPRPRPRPRSNPRP | -0.253 |
| RRIRGRPPRLPRPRPRPSEPPRP | 0.413 |
| RRIRYRPPRLPRPRPRPQQAPRP | -0.0122 |
| RRIRIRPPRLPRPRPRPGGAPRP | 0.288 |
| RRIRYRPPRLPRPRPRPCKIPRP | -0.116 |
| RRIRIRPPRLPRPRPRPFMPPRP | -0.821 |
| RRIRIRPPRLPRPRPRPEHFPRP | -0.0163 |
| RRIRRRPPRLPRPRPRPSLLPRP | 0.17 |
| RRIRDRPPRLPRPRPRPMFIPRP | -0.0363 |
| RRIRIRPPRLPRPRPRPTPHPRP | 0.788 |
| RRIRCRPPRLPRPRPRPVNCPRP | -0.0215 |
| RRIRCRPPRLPRPRPRPAPHPRP | 0.625 |
| RRIRVRPPRLPRPRPRPWGGPRP | 0.307 |
| RRIRCRPPRLPRPRPRPIHRPRP | -0.0331 |
| RRIRCRPPRLPRPRPRPMQAPRP | 0.249 |
| RRIRYRPPRLPRPRPRPIKEPRP | 0.0062 |
| RRIRYRPPRLPRPRPRPRRDPRP | -0.17 |
| RRIRPRPPRLPRPRPRPPRIPRP | 0.233 |
| RRIRWRPPRLPRPRPRPYIEPRP | -0.629 |
| RRIRCRPPRLPRPRPRPDCYPRP | -0.0924 |
| RRIRWRPPRLPRPRPRPGCLPRP | 0.792 |

| Sequence | shrunken log2 fold change |
| --- | --- |
| RRIRSRPPRLPRPRPRPWCQPRP | -0.119 |
| RRIRGRPPRLPRPRPRPNCDPRP | 0.382 |
| RRIRCRPPRLPRPRPRPYAYPRP | -0.208 |
| RRIRCRPPRLPRPRPRPMVIPRP | -0.373 |
| RRIRLRPPRLPRPRPRPSSAPRP | -0.0182 |
| RRIRKRPPRLPRPRPRPDTKPRP | -0.0643 |
| RRIRARPPRLPRPRPRPKHAPRP | 0.757 |
| RRIRGRPPRLPRPRPRPGCEPRP | 2.03 |
| RRIRNRPPRLPRPRPRPVCYPRP | -0.21 |
| RRIRERPPRLPRPRPRPQQQPRP | 0.00378 |
| RRIRVRPPRLPRPRPRPFKTPRP | 0.146 |
| RRIRVRPPRLPRPRPRPAGCPRP | 0.459 |
| RRIRGRPPRLPRPRPRPSNEPRP | 0.131 |
| RRIRHRPPRLPRPRPRPRWWPRP | 0.00789 |
| RRIRDRPPRLPRPRPRPMIGPRP | 0.266 |
| RRIRARPPRLPRPRPRPFTIPRP | -0.142 |
| RRIRNRPPRLPRPRPRPRMHPRP | 0.217 |
| RRIRNRPPRLPRPRPRPANKPRP | 0.0716 |
| RRIRYRPPRLPRPRPRPCHLPRP | -0.019 |
| RRIRERPPRLPRPRPRPHSFPRP | 0.0142 |
| RRIRLRPPRLPRPRPRPTDCPRP | -0.197 |
| RRIRHRPPRLPRPRPRPVDGPRP | -0.00557 |
| RRIRCRPPRLPRPRPRPRLRPRP | 0.925 |
| RRIRERPPRLPRPRPRPPPRPRP | 0.837 |
| RRIRWRPPRLPRPRPRPSIHPRP | -0.319 |

| Sequence | shrunken log2 fold change |
| --- | --- |
| RRIRMRPPRLPRPRPRPYFYPRP | -0.53 |
| RRIRFRPPRLPRPRPRPWKNPRP | 0.0106 |
| RRIRARPPRLPRPRPRPHVAPRP | 0.114 |
| RRIRGRPPRLPRPRPRPHNPPRP | -0.0429 |
| RRIRIRPPRLPRPRPRPALQPRP | -0.011 |
| RRIRKRPPRLPRPRPRPIKDPRP | -0.00059 |
| RRIRFRPPRLPRPRPRPTEKPRP | -0.0949 |
| RRIRIRPPRLPRPRPRPFSQPRP | -0.52 |
| RRIRHRPPRLPRPRPRPFMVPRP | -0.43 |
| RRIRMRPPRLPRPRPRPVQHPRP | 0.415 |
| RRIRARPPRLPRPRPRPFTPPRP | -0.0978 |
| RRIRGRPPRLPRPRPRPAVAPRP | 0.813 |
| RRIRRRPPRLPRPRPRPHPKPRP | 0.474 |
| RRIRHRPPRLPRPRPRPTGEPRP | -0.0103 |
| RRIRPRPPRLPRPRPRPPDYPRP | -0.107 |
| RRIRDRPPRLPRPRPRPNKTPRP | -0.132 |
| RRIRYRPPRLPRPRPRPHCLPRP | -0.0757 |
| RRIRVRPPRLPRPRPRPYDNPRP | -0.199 |
| RRIRTRPPRLPRPRPRPQMKPRP | -0.449 |
| RRIRIRPPRLPRPRPRPFPFPRP | -1.39 |
| RRIRMRPPRLPRPRPRPFNAPRP | 0.00535 |
| RRIRQRPPRLPRPRPRPISLPRP | -0.527 |
| RRIRKRPPRLPRPRPRPHFIPRP | 0.136 |
| RRIRTRPPRLPRPRPRPAYRPRP | -0.111 |
| RRIRYRPPRLPRPRPRPGRVPRP | -0.106 |

| Sequence | shrunken log2 fold change |
| --- | --- |
| RRIRYRPPRLPRPRPRPPEWPRP | 0.0503 |
| RRIRPRPPRLPRPRPRPSTEPRP | -0.0218 |
| RRIRCRPPRLPRPRPRPETIPRP | -0.0356 |
| RRIRLRPPRLPRPRPRPSYLPRP | -0.659 |
| RRIRPRPPRLPRPRPRPPSDPRP | 0.128 |
| RRIRIRPPRLPRPRPRPVGTPRP | -0.126 |
| RRIRVRPPRLPRPRPRPCVTPRP | -0.0293 |
| RRIRFRPPRLPRPRPRPRAVPRP | 0.475 |
| RRIRQRPPRLPRPRPRPAFEPRP | -0.0876 |
| RRIRKRPPRLPRPRPRPAERPRP | 0.123 |
| RRIRGRPPRLPRPRPRPYHLPRP | -1.27 |
| RRIRTRPPRLPRPRPRPDYLPRP | -1.61 |
| RRIRDRPPRLPRPRPRPNSQPRP | -0.283 |
| RRIRDRPPRLPRPRPRPDYRPRP | -0.241 |
| RRIRMRPPRLPRPRPRPAGLPRP | 0.47 |
| RRIRLRPPRLPRPRPRPIRGPRP | -0.0599 |
| RRIRVRPPRLPRPRPRPKDWPRP | 0.0589 |
| RRIRTRPPRLPRPRPRPVMHPRP | 0.102 |
| RRIRWRPPRLPRPRPRPLMRPRP | 0.858 |
| RRIRGRPPRLPRPRPRPGNIPRP | -0.104 |
| RRIRQRPPRLPRPRPRPDPMPRP | -0.0539 |
| RRIRFRPPRLPRPRPRPGHPPRP | -0.0866 |
| RRIRDRPPRLPRPRPRPSRWPRP | 0.0623 |
| RRIRSRPPRLPRPRPRPPGWPRP | 0.193 |
| RRIRPRPPRLPRPRPRPEIMPRP | -0.0268 |

| Sequence | shrunken log2 fold change |
| --- | --- |
| RRIRKRPPRLPRPRPRPHNHPRP | -0.533 |
| RRIRTRPPRLPRPRPRPRQFPRP | -0.0836 |
| RRIRNRPPRLPRPRPRPNATPRP | -0.185 |
| RRIRERPPRLPRPRPRPQIWPRP | 0.0182 |
| RRIRQRPPRLPRPRPRPLPGPRP | 0.0661 |
| RRIRWRPPRLPRPRPRPDRMPRP | 0.0163 |
| RRIRCRPPRLPRPRPRPFRCPRP | -0.0165 |
| RRIRKRPPRLPRPRPRPQHFPRP | 0.0698 |
| RRIRHRPPRLPRPRPRPLYFPRP | -0.816 |
| RRIRTRPPRLPRPRPRPHFCPRP | 0.0392 |
| RRIRTRPPRLPRPRPRPFCAPRP | -0.00433 |
| RRIRNRPPRLPRPRPRPSTEPRP | 0.118 |
| RRIRSRPPRLPRPRPRPIFLPRP | -0.335 |
| RRIRNRPPRLPRPRPRPICLPRP | 0.00214 |
| RRIRWRPPRLPRPRPRPFITPRP | -0.167 |
| RRIRFRPPRLPRPRPRPFQFPRP | -0.253 |
| RRIRARPPRLPRPRPRPEHHPRP | 0.132 |
| RRIRARPPRLPRPRPRPNGDPRP | 0.147 |
| RRIRKRPPRLPRPRPRPFVNPRP | -0.122 |
| RRIRFRPPRLPRPRPRPDRGPRP | 0.0145 |
| RRIRWRPPRLPRPRPRPVSNPRP | 0.0778 |
| RRIRCRPPRLPRPRPRPEVAPRP | 0.293 |
| RRIRNRPPRLPRPRPRPYGQPRP | -0.124 |
| RRIRGRPPRLPRPRPRPIYDPRP | -0.259 |
| RRIRCRPPRLPRPRPRPMKTPRP | -0.11 |

| Sequence | shrunken log2 fold change |
| --- | --- |
| RRIRSRPPRLPRPRPRPFLPPRP | -0.305 |
| RRIRHRPPRLPRPRPRPDQRPRP | -0.00114 |
| RRIRSRPPRLPRPRPRPDFIPRP | 0.00191 |
| RRIRLRPPRLPRPRPRPWLCPRP | -0.0198 |
| RRIRMRPPRLPRPRPRPCCIPRP | -0.351 |
| RRIRFRPPRLPRPRPRPHCSPRP | 0.0308 |
| RRIRCRPPRLPRPRPRPGEVPRP | 0.212 |
| RRIRKRPPRLPRPRPRPEMEPRP | 3.59 |
| RRIRYRPPRLPRPRPRPREDPRP | -0.126 |
| RRIRMRPPRLPRPRPRPPWSPRP | 0.596 |
| RRIRGRPPRLPRPRPRPWNGPRP | 0.0616 |
| RRIRYRPPRLPRPRPRPLRRPRP | 0.17 |
| RRIRLRPPRLPRPRPRPCSSPRP | -0.157 |
| RRIRGRPPRLPRPRPRPLQRPRP | 0.762 |
| RRIRWRPPRLPRPRPRPSVSPRP | 0.104 |
| RRIRKRPPRLPRPRPRPLNQPRP | -0.128 |
| RRIRHRPPRLPRPRPRPDCPPRP | 0.0615 |
| RRIRIRPPRLPRPRPRPHCHPRP | -0.394 |
| RRIRWRPPRLPRPRPRPHCNPRP | -0.465 |
| RRIRSRPPRLPRPRPRPGWQPRP | -0.339 |
| RRIRPRPPRLPRPRPRPGERPRP | 0.1 |
| RRIRKRPPRLPRPRPRPIQPPRP | -0.00952 |
| RRIRHRPPRLPRPRPRPQKFPRP | -0.0301 |
| RRIRRRPPRLPRPRPRPHWFPRP | -0.198 |
| RRIRRRPPRLPRPRPRPHLLPRP | -0.0838 |
